Measured values as given in patent US20240272176A1, “SINGLE DOMAIN ANTIBODY SPECIFIC FOR PHOSPHORYLATED H2AX AND ITS USES” (UNIVERSITE DE STRASBOURG, priority 2021, published 2024).

B1: C6-mCherry chromobody (expressed in transfected H1299 cells) (other, not shown: small tags and cut ends)
VHH: MADVQLVESGGGLVQAGDSLRLSCAASGLTFSRYAMGWFRQAPGNEREFVAVITASGRTTLYADSVKGRFTISRDNAKNTVALQMQSLKPEDTAVYYCAADYGTSRYTRRQSEYEYWGQGTQVTVSSAAA
notes: Expressed under the β-actin promoter from pβA-C6-E6T-mCherry; junctions not spelled out; also called C6 chromobody; C6 nanobody-mCherry
B2: C6-mCherry: C6 coding region fused in frame to mCherry, expressed by transfection (protein)
VHH: B1 VHH
modifications: left off: small tags and cut ends
notes: C6 coding region fused in frame to mCherry, expressed by transfection

Experiments:
[1] = molecular target: T1, γ-H2AX (histone H2AX phosphorylated at serine 139) in drug-treated H1299 or U2OS cells or their extracts (human, UniProt P16104 1-143, phosphorylation of serine at position 139 (S139)); experiment: mCherry fluorescence in transfected H1299 cells after CSK wash
T1 construct: Endogenous nuclear protein of H1299 and U2OS cells (fixed, living, or nuclear/histone extracts), not on the cell surface; also called gammaH2AX; γ-H2AX foci
Experimental: Thus, despite their solubility in mammalian cells, these reagents cannot be transfected into cells to detect with precision γ-H2AX after drug treatment likely due to too high chromobody expression levels.
For the analysis by classical immunofluorescence microscopy, the transfected or transduced cells were fixed with 4% paraformaldehyde for 20 minutes and, after permeabilization with 0.2% Triton X100 for 5 min, they were incubated with mAb 3F4 or VHH preparations diluted in PBS containing either 10% fetal calf serum or 2% BSA. Where indicated, the cells were treated with CSK-100 modified buffer (100 mM NaCl, 300 mM sucrose, 3 mM MgCl₂, 10 mM HEPES pH 6.8, 1 mM EGTA, and 0.2% Triton X-100) for 5 minutes prior to fixation. […] Where indicated, Alexa 568 labelled-C6B molecules were used. The labelling of the purified bivalent C6 equipped with a cysteine residue at the C-terminus was performed essentially as previously described (Shaner, N.C. et al.; Nat. Biotechnol. 2004, 22, 1567-1572). Briefly, purified protein in 0.1 M KH₂PO₄ pH 6.5, 150 mM NaCl, 1 mM EDTA, 250 mM sucrose was mixed with a 1.2 molar amount of Alexa Fluor 568 maleimide derivative (ThermoFisher Scientific). […] The amount of fluorophore per bivalent C6 in the flow-through was calculated by spectrophotometry with a Nanodrop 2000 device (ThermoFisher Scientific). […] The signal was recorded with a Leica DFC350FX camera. […]

γ-H2AX in H1299 cells = molecular target: T2, γ-H2AX in H1299 cells (Homo sapiens, UniProt P16104); experiment: Chromobody expression by transient transfection in H1299 cells with CSK buffer wash prior to fixation; format: cell-based; details: transfected H1299 cells
T2 construct: endogenous in cells; host or cells: H1299
From the text: The pβA-scFv-eGFP, a derivative of pDRIVE-hβ-actin (Rinaldi, A.-S. et al.; Exp. Cell Res. 2013, 319, 838-849, doi:10.1016/j.yexcr.2013.01.011) was modified by PCR to insert in frame to the scFv the E6 tag and the mCherry protein using E6T-HindIII-For/E6T-HindIII-Rev and mCherry-For/mCherry-Rev primer pairs, respectively. This vector which carries unique NcoI and SpeI restriction sites was used to sub-clone the VHH variants as described above, thereby generating pβA-C6-E6T-mCherry, pβA-C6M-E6T-mCherry, pβA-C6B-E6T-mCherry and pβA-C6BM-E6T-mCherry.
The day before transfection, 8×10^4 cells were plated in 12-well culture plates containing glass coverslips. […]
For the analysis by classical immunofluorescence microscopy, the transfected or transduced cells were fixed with 4% paraformaldehyde for 20 minutes and, after permeabilization with 0.2% Triton X100 for 5 min, they were incubated with mAb 3F4 or VHH preparations diluted in PBS containing either 10% fetal calf serum or 2% BSA. […] The amount of fluorophore per bivalent C6 in the flow-through was calculated by spectrophotometry with a Nanodrop 2000 device (ThermoFisher Scientific). […] The signal was recorded with a Leica DFC350FX camera. […] For the measurement of the nuclear fluorescence intensity, the images of microscopy fields were acquired with the 20× objective. […]

| Molecule | binding result [1] | nuclear chromobody signal after CSK treatment (γ-H2AX in H1299 cells) | nuclear chromobody signal after CSK treatment (γ-H2AX in H1299 cells; listed as C6 chromobody) |
| --- | --- | --- | --- |
| B1 | no binding | – | – |
| B2 | – | entirely washed off | lost in both drug-treated and untreated cells |
